From patent publication US20150359847A1, “METHOD AND COMPOSITION FOR CONFERRING NEUROPROTECTION” (BLOOD SYSTEMS RESEARCH INSTITUTE, priority 2014, published 2015)

Experiments:
[1] = system: S6 Ribosomal Protein (S235/236) in primary hippocampal neurons; test: S6 Ribosomal Protein (S235/236) phosphorylation in primary hippocampal neurons; assay type: cell-based, mouse; conditions: 1 μg/ml TIMP3, 15 mins
Protocol: SH-SY5Y cells were obtained from ATCC (Cat# CRL-2266, Manassas, Va.) and were cultured in DMEM and 10% FBS up to passage 10. For differentiation of SH-SY5Y cells into a neuronal phenotype, cells were first plated in DMEEM+10% FBS for 24 hrs before exchanging media in DMEM+1% FBS 10 μM retinoic acid. Differentiation was performed for 3 days before experimentation. Hippocampal neurons were prepared according to the protocol by Beaudoin et al. (Nature Protocols 2012; 7(9):1741-1754) with minor modifications. In brief, after trypsin digestion of hippocampi isolated from P1 mouse pups single cell suspensions was created by trituration and plated onto Biocoat™ poly-D-lysine coated 12-well plates (Cat#354470, BD Biosciences, San Jose, Calif.). […]
Pathscan Antibody™ array kits were purchased from Cell Signaling Technologies (Danvers, Mass.). PathScan® RTK signaling antibody array kit (Fluorescent Readout, Cat#7949) and PathScan™ Akt signaling antibody array kit (Fluorescent Readout, Cat#9700) were performed as per manufacturer's instructions. Imaging was performed on a LI-COR Odyssey™ infrared scanner and pixel densities measured by in house LI-COR Image™ suite software. […]
Lysates was analyzed in conjuncture with the LI-COR Odyssey™ infra-red imaging system. […] After further wash steps images were obtained using a LI-COR™ Odyssey scanner and quantified using LI-COR™ Image Studio software. […]

MMP-2 = biological target: T1, MMP-2 (Homo sapiens, UniProt P08253); test: SensoLyte Fluorimetric MMP-2 Activity Assay; assay type: biochemical; conditions: dose response; 1 μg/ml TIMP3
T1 sequence (P08253 110-660): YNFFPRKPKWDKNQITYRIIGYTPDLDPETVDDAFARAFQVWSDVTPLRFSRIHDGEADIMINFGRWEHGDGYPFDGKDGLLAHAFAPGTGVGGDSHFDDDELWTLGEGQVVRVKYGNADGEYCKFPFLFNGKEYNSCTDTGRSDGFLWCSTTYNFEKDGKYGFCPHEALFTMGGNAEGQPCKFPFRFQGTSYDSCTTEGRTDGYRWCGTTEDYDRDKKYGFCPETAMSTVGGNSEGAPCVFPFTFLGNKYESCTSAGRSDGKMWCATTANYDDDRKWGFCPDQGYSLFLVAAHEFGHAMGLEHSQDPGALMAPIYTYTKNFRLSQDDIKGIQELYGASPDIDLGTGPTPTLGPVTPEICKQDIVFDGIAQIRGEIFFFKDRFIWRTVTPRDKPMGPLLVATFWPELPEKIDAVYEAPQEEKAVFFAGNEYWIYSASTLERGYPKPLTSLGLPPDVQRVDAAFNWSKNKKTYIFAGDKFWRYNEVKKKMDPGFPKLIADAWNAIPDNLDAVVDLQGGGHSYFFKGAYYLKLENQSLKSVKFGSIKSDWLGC
Text: SensoLyte Fluorimetric MMP-2 Activity Assay Kit™ (Cat#71151) and SensoLyte Fluorimetric MMP-9 Activity Assay Kit™ (Cat#71155) were purchased from AnaSpec (Fremont, Calif.) and performed per manufacturer's instructions.

B1: TIMP3: Recombinant tissue inhibitor of matrix metalloproteinase-3, a soluble protein released by MSCs, obtained from Amgen Inc. (protein)
chain: CTCSPSHPQDAFCNSDIVIRAKVVGKKLVKEGPFGTLVYTIKQMKMYRGFTKMPHVQYIHTEASESLCGLKLEVNKYQYLLTGRVYDGKMYTGLCNFVERWDQLTLSQRKGLNYRYHLGCNCKIKSCYYLPCFVTSKNECLWTDMLSNFGYPGYQSKHYACIRQKGGYCSWYRGWAPPDKSIINATDP
- S6 Ribosomal Protein (S235/236) activation, western blot [1]: activates S6 Ribosomal Protein (S^235/236)
- S6 Ribosomal Protein (S235/236) phosphorylation, antibody array [1]: phosphorylates mTORC1 pathway target S6 Ribosomal Protein (S^235/236)
- MMP-2 inhibition (Sensolyte FRET assay) (MMP-2): can fully inhibit
